Results: US20190142971A1, “FORMULATION AND DELIVERY OF MODIFIED NUCLEOSIDE, NUCLEOTIDE, AND NUCLEIC ACID COMPOSITIONS” (ModernaTX, Inc., priority 2013, published 2019)

Legend:
Type in all cases: in vivo
Sprague-Dawley rats = assay: Example 34: EPO mRNA in buffer IM in rats, serum EPO (Table 59); details: dose 100 μg, 13 hours post injection
rats = assay: Example 17: LNP IV, IM, SC in rats, serum EPO/G-CSF ELISA (Table 34); details: for EPO / G-CSF Serum Concentration: LNP 0.05 mg/kg
Description: (§1) Formulations, listed in Table 33, were characterized by particle size, zeta potential, and encapsulation.
LNP formulations, shown in Table 33 (above), were administered to rats (n=5) intravenously (IV), intramuscularly (IM) or subcutaneously (SC) at a single modified mRNA dose of 0.05 mg/kg. A control group of rats (n=4) was untreated. […] The rats administered EPO modified mRNA intravenously were also bled at 7 days.

mice = assay: Example 19A: LNP IV in mice, serum EPO/G-CSF ELISA (Table 36)
Description: as §1
LNP formulations, shown in Table 33 (above), were administered to mice (n=4) intravenously (IV) at a single modified mRNA dose 0.05 mg/kg or 0.005 mg/kg. There was also 3 control groups of mice (n=4) that were untreated. The mice were bled at 2 hours, 8 hours, 24 hours, 48 hours and 72 hours after they were administered with G-CSF or EPO modified mRNA formulations to determine the protein expression. Protein expression of G-CSF and EPO were determined using ELISA.

[1] = system: non-human primates (cynomolgus monkey); assay: Example 22: NHP serum chemistry ALT and AST (Tables 45, 46)
[2] = system: non-human primates (cynomolgus monkey); assay: Example 22: NHP cytokine interferon-alpha (Table 47)
Description: LNP formulations, shown in Table 33 (above), were administered to non-human primates (NHP) (cynomolgus monkey) (n=2) as intravenous injection (IV). The NHP were administered a single modified mRNA IV dose of 0.5 mg/kg, 0.05 mg/kg or 0.005 mg/kg of G-CSF or EPO in a dose volume of 0.5 mL/kg. The NHPs were bled before dosing with the modified mRNA LNP formulations to determine protein expression in the serum and a baseline complete blood count. After administration with the G-CSF modified mRNA formulation the NHP were bled at 8, 24, 48 and 72 hours to determined protein expression. After administration with the EPO modified mRNA formulation the NHP were bled at 8, 24, 48, 72 hours and 7 days to determined protein expression.

[3] = 0.005 mg/kg, 2 days, Female NHP
[4] = 0.005 mg/kg, 4 days, Female NHP
[5] = 0.005 mg/kg, 7 days, Female NHP
[6] = 0.005 mg/kg, 14 days, Female NHP
[7] = 0.005 mg/kg, Pre-dose, Female NHP
[8] = 0.005 mg/kg, Pre-dose, Male NHP
[9] = 0.05 mg/kg, 14 days, Female NHP
[10] = 0.05 mg/kg, Pre-dose, Female NHP
[11] = 0.5 mg/kg, Pre-dose, Female NHP

Molecule: Luciferase: luciferase mRNA, SEQ ID NO: 14, Cap1, fully modified with 5-methylcytosine and pseudouridine
- human EPO in serum, Avg. (Sprague-Dawley rats): 24.5 pg/mL
- human EPO in serum, Geometric-mean (Sprague-Dawley rats): 22.4 pg/mL

B1: G-CSF: modified mRNA encoding human G-CSF, SEQ ID NO: 4, Cap1, fully modified with 5-methylcytosine and pseudouridine; LNP-formulated in Examples 16-22 (nucleic acid)
chain: GGGAAAUAAGAGAGAAAAGAAGAGUAAGAAGAAAUAUAAGAGCCACCAUGGCCGGUCCCGCGACCCAAAGCCCCAUGAAACUUAUGGCCCUGCAGUUGCUGCUUUGGCACUCGGCCCUCUGGACAGUCCAAGAAGCGACUCCUCUCGGACCUGCCUCAUCGUUGCCGCAGUCAUUCCUUUUGAAGUGUCUGGAGCAGGUGCGAAAGAUUCAGGGCGAUGGAGCCGCACUCCAAGAGAAGCUCUGCGCGACAUACAAACUUUGCCAUCCCGAGGAGCUCGUACUGCUCGGGCACAGCUUGGGGAUUCCCUGGGCUCCUCUCUCGUCCUGUCCGUCGCAGGCUUUGCAGUUGGCAGGGUGCCUUUCCCAGCUCCACUCCGGUUUGUUCUUGUAUCAGGGACUGCUGCAAGCCCUUGAGGGAAUCUCGCCAGAAUUGGGCCCGACGCUGGACACGUUGCAGCUCGACGUGGCGGAUUUCGCAACAACCAUCUGGCAGCAGAUGGAGGAACUGGGGAUGGCACCCGCGCUGCAGCCCACGCAGGGGGCAAUGCCGGCCUUUGCGUCCGCGUUUCAGCGCAGGGCGGGUGGAGUCCUCGUAGCGAGCCACCUUCAAUCAUUUUUGGAAGUCUCGUACCGGGUGCUGAGACAUCUUGCGCAGCCGUGAAGCGCUGCCUUCUGCGGGGCUUGCCUUCUGGCCAUGCCCUUCUUCUCUCCCUUGCACCUGUACCUCUUGGUCUUUGAAUAAAGCCUGAGUAGGAAG
modifications: Cap1, 5-methylcytosine, pseudouridine
- protein expression detectable out to (rats; IV): 7 days
- EPO / G-CSF Serum Concentration (rats; IM, 2 hours): 1620.4 pg/mL
- EPO / G-CSF Serum Concentration (rats; IM, 8 hours): 7910.4 pg/mL
- EPO / G-CSF Serum Concentration (rats; IM, 24 hours): 893.3 pg/mL
- EPO / G-CSF Serum Concentration (rats; IM, 48 hours): OSC
- EPO / G-CSF Serum Concentration (rats; IM, 5 days): OSC
- EPO / G-CSF Serum Concentration (rats; IV, 2 hours): 31,331.9 pg/ml
- EPO / G-CSF Serum Concentration (rats; IV, 8 hours): 70,532.4 pg/ml
- EPO / G-CSF Serum Concentration (rats; IV, 24 hours): 5,738.6 pg/ml
- EPO / G-CSF Serum Concentration (rats; IV, 48 hours): 233.8 pg/mL
- EPO / G-CSF Serum Concentration (rats; IV, 5 days): 60.4 pg/mL
- EPO / G-CSF Serum Concentration (rats; SC, 2 hours): 80.3 pg/mL
- EPO / G-CSF Serum Concentration (rats; SC, 8 hours): 164.2 pg/mL
- EPO / G-CSF Serum Concentration (rats; SC, 24 hours): OSC
- EPO / G-CSF Serum Concentration (rats; SC, 48 hours): OSC
- EPO / G-CSF Serum Concentration (rats; SC, 5 days): OSC
- protein expression detectable to (rats; subcutaneous and intramuscular): at least 8 hours
- EPO / G-CSF Serum Concentration (mice; 0.005 mg/kg, 2 hours): 3,447.8 pg/ml
- EPO / G-CSF Serum Concentration (mice; 0.005 mg/kg, 8 hours): 11,454.0 pg/ml
- EPO / G-CSF Serum Concentration (mice; 0.005 mg/kg, 24 hours): 4,960.2 pg/ml
- EPO / G-CSF Serum Concentration (mice; 0.005 mg/kg, 48 hours): 686.4 pg/mL
- EPO / G-CSF Serum Concentration (mice; 0.05 mg/kg, 2 hours): 20,951.4 pg/ml
- EPO / G-CSF Serum Concentration (mice; 0.05 mg/kg, 8 hours): 70,012.8 pg/ml
- EPO / G-CSF Serum Concentration (mice; 0.05 mg/kg, 24 hours): 19,356.2 pg/ml
- EPO / G-CSF Serum Concentration (mice; 0.05 mg/kg, 48 hours): 1,963.0 pg/ml
- EPO / G-CSF Serum Concentration (mice; 0.05 mg/kg, 72 hours): 47.3 pg/mL
- ALT [1, 3]: 32 U/L
- AST [1, 3]: 34 U/L
- ALT ([1]; 0.005 mg/kg, 2 days, Male NHP): 39 U/L
- AST ([1]; 0.005 mg/kg, 2 days, Male NHP): 70 U/L
- ALT [1, 4]: 58 U/L
- AST [1, 4]: 36 U/L
- ALT ([1]; 0.005 mg/kg, 4 days, Male NHP): 48 U/L
- AST ([1]; 0.005 mg/kg, 4 days, Male NHP): 39 U/L
- ALT [1, 5]: 55 U/L
- AST [1, 5]: 31 U/L
- ALT ([1]; 0.005 mg/kg, 7 days, Male NHP): 29 U/L
- AST ([1]; 0.005 mg/kg, 7 days, Male NHP): 28 U/L
- ALT [1, 6]: 46 U/L
- AST [1, 6]: 20 U/L
- ALT ([1]; 0.005 mg/kg, 14 days, Male NHP): 44 U/L
- AST ([1]; 0.005 mg/kg, 14 days, Male NHP): 39 U/L
- ALT [1, 7]: 51 U/L
- AST [1, 7]: 54 U/L
- ALT [1, 8]: 43 U/L
- AST [1, 8]: 35 U/L
- ALT ([1]; 0.05 mg/kg, 2 days, Female NHP): 39 U/L
- AST ([1]; 0.05 mg/kg, 2 days, Female NHP): 34 U/L
- ALT ([1]; 0.05 mg/kg, 2 days, Male NHP): 82 U/L
- AST ([1]; 0.05 mg/kg, 2 days, Male NHP): 95 U/L
- ALT ([1]; 0.05 mg/kg, 4 days, Female NHP): 56 U/L
- AST ([1]; 0.05 mg/kg, 4 days, Female NHP): 42 U/L
- ALT ([1]; 0.05 mg/kg, 4 days, Male NHP): 88 U/L
- AST ([1]; 0.05 mg/kg, 4 days, Male NHP): 69 U/L
- ALT ([1]; 0.05 mg/kg, 7 days, Female NHP): 73 U/L
- AST ([1]; 0.05 mg/kg, 7 days, Female NHP): 52 U/L
- ALT ([1]; 0.05 mg/kg, 7 days, Male NHP): 73 U/L
- AST ([1]; 0.05 mg/kg, 7 days, Male NHP): 62 U/L
- ALT [1, 9]: 31 U/L
- AST [1, 9]: 20 U/L
- ALT ([1]; 0.05 mg/kg, 14 days, Male NHP): 50 U/L
- AST ([1]; 0.05 mg/kg, 14 days, Male NHP): 59 U/L
- ALT [1, 10]: 53 U/L
- AST [1, 10]: 33 U/L
- ALT ([1]; 0.05 mg/kg, Pre-dose, Male NHP): 58 U/L
- AST ([1]; 0.05 mg/kg, Pre-dose, Male NHP): 99 U/L
- ALT ([1]; 0.5 mg/kg, 2 days, Female NHP): 209 U/L
- AST ([1]; 0.5 mg/kg, 2 days, Female NHP): 294 U/L
- ALT ([1]; 0.5 mg/kg, 2 days, Male NHP): 63 U/L
- AST ([1]; 0.5 mg/kg, 2 days, Male NHP): 196 U/L
- ALT ([1]; 0.5 mg/kg, 4 days, Female NHP): 98 U/L
- AST ([1]; 0.5 mg/kg, 4 days, Female NHP): 63 U/L
- ALT ([1]; 0.5 mg/kg, 4 days, Male NHP): 70 U/L
- AST ([1]; 0.5 mg/kg, 4 days, Male NHP): 67 U/L
- ALT ([1]; 0.5 mg/kg, 7 days, Female NHP): 149 U/L
- AST ([1]; 0.5 mg/kg, 7 days, Female NHP): 68 U/L
- ALT ([1]; 0.5 mg/kg, 7 days, Male NHP): 41 U/L
- AST ([1]; 0.5 mg/kg, 7 days, Male NHP): 53 U/L
- ALT ([1]; 0.5 mg/kg, 14 days, Female NHP): 145 U/L
- AST ([1]; 0.5 mg/kg, 14 days, Female NHP): 67 U/L
- ALT ([1]; 0.5 mg/kg, 14 days, Male NHP): 43 U/L
- AST ([1]; 0.5 mg/kg, 14 days, Male NHP): 47 U/L
- ALT [1, 11]: 216 U/L
- AST [1, 11]: 47 U/L
- ALT ([1]; 0.5 mg/kg, Pre-dose, Male NHP): 29 U/L
- AST ([1]; 0.5 mg/kg, Pre-dose, Male NHP): 32 U/L
- IFN-alpha [2, 4]: 0 pg/mL
- IFN-alpha ([2]; 0.005 mg/kg, 4 days, Male NHP): 0 pg/mL
- IFN-alpha ([2]; 0.005 mg/kg, Day 1 + 8 hr, Female NHP): 0 pg/mL
- IFN-alpha ([2]; 0.005 mg/kg, Day 1 + 8 hr, Male NHP): 0 pg/mL
- IFN-alpha [2, 7]: 0 pg/mL
- IFN-alpha [2, 8]: 0 pg/mL
- IFN-alpha ([2]; 0.05 mg/kg, 4 days, Female NHP): 0 pg/mL
- IFN-alpha ([2]; 0.05 mg/kg, 4 days, Male NHP): 0 pg/mL
- IFN-alpha ([2]; 0.05 mg/kg, Day 1 + 8 hr, Female NHP): 0 pg/mL
- IFN-alpha ([2]; 0.05 mg/kg, Day 1 + 8 hr, Male NHP): 0 pg/mL
- IFN-alpha [2, 10]: 0 pg/mL
- IFN-alpha ([2]; 0.05 mg/kg, Pre-dose, Male NHP): 0 pg/mL
- IFN-alpha ([2]; 0.5 mg/kg, 4 days, Female NHP): 0 pg/mL
- IFN-alpha ([2]; 0.5 mg/kg, 4 days, Male NHP): 0 pg/mL
- IFN-alpha ([2]; 0.5 mg/kg, Day 1 + 8 hr, Female NHP): 529.2 pg/mL
- IFN-alpha ([2]; 0.5 mg/kg, Day 1 + 8 hr, Male NHP): 503.8 pg/mL
- IFN-alpha [2, 11]: 0 pg/mL
- IFN-alpha ([2]; 0.5 mg/kg, Pre-dose, Male NHP): 0 pg/mL
